These results are taken from US20220153839A1 (NBE THERAPEUTICS, published 2022).

The target of experiment [1] is T1, human ROR1, full length, on cells (human, UniProt Q01973 30-937).
T1 construct: whole, on cells; Ectopic on 63-12, K562, EMT-6 and HEK293 cells; also called hROR1; cell surface human ROR1
Briefly: flow cytometry on human cancer cell lines; 2A2 2 µg/mL; anti-human IgG (Fcγ) PE. The protocol: 5×10⁵ of each cell type were added per well to 96-well plates. Plates were centrifuged (3 min, 1300 rpm) with re-suspension in buffer (PBS supplemented with 2% (v/v) of FCS). […] Plates were then incubated on ice for 30 min and washed with 200 μL of buffer prior to resuspension in 200 μL of buffer supplemented with anti-human IgG antibody (Fc gamma-specific) PE (eBioscience 12-4998-82) at a 1:250 dilution. Following 30 min incubation on ice and one washing, cells were analyzed using a FACSCalibur instrument (BD Biosciences) and data was analyzed using FlowJo analytical software (Tree Star, Ashland, Oreg.).
In general terms: Flow cytometry measures light scatter and fluorescence of single cells or particles in a stream.

Experiment [2] deals with T1, human ROR1, full length, on cells. Briefly: cell-based or functional assay.
For experiment [3] the target is unchanged. Nature of the experiment: cell-based or functional assay. This is another data set of the same source.
For experiment [4] the target is unchanged. Nature of the experiment: cell-based or functional assay. The source holds these as a separate data set.
Experiment [5] has the same target. Nature of the experiment: cell-based or functional assay. The source holds these as a separate data set.
For experiment [6] the target is unchanged. Nature of the experiment: cell-based or functional assay. This is another data set of the same source.
Experiment [7] has the same target. Nature of the experiment: cell-based or functional assay. This is another data set of the same source.
Experiment [8] shares this target. Nature of the experiment: cell-based or functional assay. This is another data set of the same source.
In experiment [9] the target is T2, hFc-hROR2 (extracellular domain of human ROR2 fused to the Fc domain of human IgG1) (human, UniProt Q01974 34-403).
T2 construct: extracellular domain; not shown: Fc domain of human IgG1
Nature of the experiment: ELISA as for hFc-hROR1; third bar series, keyed 'hFc-hROR1' a second time on the sheet, taken as hFc-hROR2 by legend paragraph 27. Background: An ELISA detects its analyte on a solid surface through an enzyme-linked reagent.

The target in experiment [10] is T3, hFc-hROR1 (extracellular domain of human ROR1 fused to the Fc domain of human IgG1) (human, UniProt Q01973 30-406).
T3 construct: extracellular domain; also called hFc-ROR1; not shown: Fc domain of human IgG1
Nature of the experiment: SPR (Biacore X100); hFc-hROR1 captured by anti-human Fcγ antibody on CM5; Fab as analyte; 1:1 Langmuir fit. An outline of the steps:
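hFc-hROR1 was captured on anti-human Fc CM5 chip in HBS-EP+ (pH 7.4), with reference flow cell subtraction and MgCl₂ regeneration. Fabs were injected at five concentrations, one in duplicate. kon/koff came from a 1:1 Langmuir fit, and Kd = koff/kon.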
Background: In SPR one partner is held on a chip, and binding of the other changes the refractive index at the surface.

The target in the next experiment is T4, Fr + Ki (human, UniProt Q01973).
T4 construct: Frizzled and Kringle domains of the extracellular domain; also called hFc-hROR1-Fr-Ki
Briefly: ELISA on directly coated hFc fusion proteins of hROR1 domains; anti-His-HRP; A405.

For a further experiment, the target named is T5, Fr.
T5 construct: also called hFc-hROR1-Fr
The description is as above.

The target of the next experiment is T6, Kr (human, UniProt Q01973).
T6 construct: Kringle domain of the extracellular domain; also called hFc-hROR1-Kr
The experiment is described as above.

For another experiment, the target named is T7, Ig (human, UniProt Q01973).
T7 construct: Ig domain of the extracellular domain; also called hFc-hROR1-Ig
The experiment is described as above.

Experiment [11] concerns the target T8, hFc-mROR1 (extracellular domain of mouse ROR1 fused to the Fc domain of human IgG1) (human; mouse, UniProt Q9Z139 30-406).
T8 construct: extracellular domain; not shown: Fc domain of human IgG1
Nature of the experiment: ELISA; hFc fusion captured by coated anti-human IgG1 Fc; Fab 100 ng/50 µL; anti-His-HRP; A405. The method, then:
The binding of each chimeric rabbit/human Fab to hROR1 and mROR1 fused with human IgG1 Fc (hFc-hROR1 and hFc-mROR1) was analyzed by ELISA. hFc-ROR1 or hFc-mROR1 were captured by anti-human IgG1 Fc antibody immobilized on plate and then incubated with hROR1 specific Fabs comprising a His-tag via detection with mouse anti-His tag.
ELISA: For ELISA (FIG. 2), each well of a 96-well Costar 3690 plate (Corning, Corning, N.Y.) was coated with 100 ng anti-human IgG1 Fc in 25 μL coating buffer (0.1 M Na₂CO₃, 0.1 M NaHCO₃, pH 9.6) for 1 h at 37° C. After blocking with 150 μL 3% (w/v) BSA/TBS for 1 h at 37° C., hFc-hROR1 or hFc-mROR1 was captured following incubation at 100 ng/50 μL for 1 h at 37° C. Then 100 ng/50 μL of Fab was applied in each well at 37° C. 2 h later, 50 μL of a 1:1000 dilution of a mouse anti-His tag mAb conjugated to horse radish peroxidase (HRP) (R&D Systems, Minneapolis, Minn.) in 1% (w/v) BSA/TBS was used to detect the Fab. To determine the epitopes (FIG. 4), hFc fusion proteins containing different domains of hROR1 were coated directly, followed by incubation with Fab before detection by mouse anti-His tag mAb conjugated to HRP. […] The absorbance was measured at 405 nm using a SpectraMax M5 microplate reader (Molecular Devices; Sunnyvale, Calif.) and SoftMax Pro software (Molecular Devices).

Experiment [12] has as its target T9, hROR2 (human, UniProt Q01974).
T9 construct: full length, on the cell surface; also called 63-12 / hROR2; ROR2 on T47D cells
Nature of the experiment: flow cytometry on 63-12 / hROR2 cells; anti-His Alexa Fluor 488.

Experiment [13] concerns the target T9, hROR2. Briefly: flow cytometry on T47D cells (ROR2 positive, ROR1 negative); APC goat anti-human Fcγ. The protocol:
Flow cytometry: Cells were stained using standard flow cytometry methodology. Briefly, for purified anti-ROR1 Fab (FIG. 3), 0.1-1×10⁶ cells were stained with 1000 ng/100 μL of Fab on ice for 1 h. After washing twice with ice-cold flow cytometry buffer (PBS containing 1% (v/v) BSA, 0.1% sodium azide and 1 mM EDTA), the cells were incubated with a 1:1000 dilution of a mouse anti-His tag mAb conjugated to Alexa Fluor 488 (Qiagen) in 100 μL flow cytometry buffer on ice for 30 min. For purified anti-ROR1 IgG1 (FIG. 8), 0.1-1×10⁶ cells were blocked by 4% goat serum for 15 min at room temperature and then incubated with 100 ng/100 μL of IgG on ice for 1 h. After washing twice with ice-cold flow cytometry buffer, cells were stained with a 1:500 dilution of goat anti-human IgG, Fcγ pAbs conjugated to APC (Jackson ImmunoResearch) in 100 μL flow cytometry buffer on ice for 30 min. For commercial goat anti human ROR1 polyclonal antibody (FIG. 8), 0.1-1×10⁶ cells were stained with 200 ng/100 μL of Ab on ice for 1 h. […] Finally, 4′,6-diamidino-2-phenylindole (DAPI) was added to a final concentration of 100 ng/mL to exclude dead cells from the analysis. Cells were analyzed using a FACSCalibur instrument (BD Biosciences) and FlowJo analytical software (Tree Star, Ashland, Oreg.).

Substitutions are numbered along the chain they refer to.

T3 sequence (Q01973 30-406): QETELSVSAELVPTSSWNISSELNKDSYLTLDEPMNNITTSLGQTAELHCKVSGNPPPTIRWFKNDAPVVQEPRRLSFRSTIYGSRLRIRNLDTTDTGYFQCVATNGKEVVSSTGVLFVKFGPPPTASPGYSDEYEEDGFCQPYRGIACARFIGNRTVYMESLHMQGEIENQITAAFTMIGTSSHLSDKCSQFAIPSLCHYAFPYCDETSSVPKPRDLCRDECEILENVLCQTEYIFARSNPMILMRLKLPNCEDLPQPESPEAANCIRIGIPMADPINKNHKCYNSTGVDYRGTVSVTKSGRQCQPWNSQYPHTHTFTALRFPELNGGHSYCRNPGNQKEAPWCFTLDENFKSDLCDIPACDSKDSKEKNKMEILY
T1 sequence (Q01973 30-937): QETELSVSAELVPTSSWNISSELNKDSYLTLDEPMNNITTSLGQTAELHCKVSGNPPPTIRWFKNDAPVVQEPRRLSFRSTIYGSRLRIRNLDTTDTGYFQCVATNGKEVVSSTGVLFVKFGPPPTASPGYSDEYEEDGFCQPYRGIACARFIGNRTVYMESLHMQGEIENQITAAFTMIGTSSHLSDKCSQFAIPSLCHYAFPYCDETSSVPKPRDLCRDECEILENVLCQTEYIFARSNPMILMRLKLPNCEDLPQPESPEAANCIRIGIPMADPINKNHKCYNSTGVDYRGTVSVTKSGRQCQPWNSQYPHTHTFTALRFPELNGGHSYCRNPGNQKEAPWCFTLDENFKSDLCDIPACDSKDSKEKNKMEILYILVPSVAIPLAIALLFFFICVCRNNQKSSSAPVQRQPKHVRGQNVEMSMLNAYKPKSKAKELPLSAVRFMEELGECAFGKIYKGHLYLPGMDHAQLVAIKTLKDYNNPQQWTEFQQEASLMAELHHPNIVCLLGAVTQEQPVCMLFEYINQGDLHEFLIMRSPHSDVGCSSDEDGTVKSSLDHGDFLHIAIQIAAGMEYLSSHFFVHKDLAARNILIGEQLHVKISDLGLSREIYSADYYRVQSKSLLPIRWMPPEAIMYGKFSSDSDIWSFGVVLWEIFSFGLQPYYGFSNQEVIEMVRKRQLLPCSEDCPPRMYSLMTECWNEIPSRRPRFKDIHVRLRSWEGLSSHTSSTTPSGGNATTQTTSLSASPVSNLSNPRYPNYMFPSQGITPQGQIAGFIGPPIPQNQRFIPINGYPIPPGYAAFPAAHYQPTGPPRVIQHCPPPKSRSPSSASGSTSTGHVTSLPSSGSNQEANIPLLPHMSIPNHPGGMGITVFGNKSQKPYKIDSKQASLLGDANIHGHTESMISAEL
T9 sequence (Q01974 34-943 limits assumed): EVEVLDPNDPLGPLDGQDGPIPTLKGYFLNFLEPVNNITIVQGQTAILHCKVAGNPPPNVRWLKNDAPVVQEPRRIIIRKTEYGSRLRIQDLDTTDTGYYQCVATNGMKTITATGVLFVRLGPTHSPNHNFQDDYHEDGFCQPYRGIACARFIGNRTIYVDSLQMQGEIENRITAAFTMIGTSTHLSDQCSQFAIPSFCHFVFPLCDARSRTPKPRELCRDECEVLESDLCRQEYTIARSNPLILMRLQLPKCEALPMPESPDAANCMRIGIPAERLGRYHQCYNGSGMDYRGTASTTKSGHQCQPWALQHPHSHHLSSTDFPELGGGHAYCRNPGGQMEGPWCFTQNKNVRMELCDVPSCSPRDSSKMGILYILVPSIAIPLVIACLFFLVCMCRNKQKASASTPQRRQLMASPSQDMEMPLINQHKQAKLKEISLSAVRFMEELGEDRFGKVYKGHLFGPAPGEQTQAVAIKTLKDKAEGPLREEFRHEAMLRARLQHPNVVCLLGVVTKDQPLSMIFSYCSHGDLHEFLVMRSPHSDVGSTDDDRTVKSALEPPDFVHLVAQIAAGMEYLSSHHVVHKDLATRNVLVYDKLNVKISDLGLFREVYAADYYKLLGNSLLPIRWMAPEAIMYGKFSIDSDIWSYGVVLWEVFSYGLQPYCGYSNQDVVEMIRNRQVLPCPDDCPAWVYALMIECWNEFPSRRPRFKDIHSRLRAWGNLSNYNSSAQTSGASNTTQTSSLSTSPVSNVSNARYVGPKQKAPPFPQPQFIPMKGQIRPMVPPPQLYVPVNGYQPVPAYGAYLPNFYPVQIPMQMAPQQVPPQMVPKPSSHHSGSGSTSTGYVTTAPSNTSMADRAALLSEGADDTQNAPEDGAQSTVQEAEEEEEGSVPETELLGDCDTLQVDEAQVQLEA
T7 sequence (Q01973 42-147 limits assumed): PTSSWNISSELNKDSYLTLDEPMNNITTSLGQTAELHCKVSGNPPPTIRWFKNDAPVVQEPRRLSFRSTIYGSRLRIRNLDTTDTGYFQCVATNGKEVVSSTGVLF
T5 sequence (chain, as listed by the source limits assumed): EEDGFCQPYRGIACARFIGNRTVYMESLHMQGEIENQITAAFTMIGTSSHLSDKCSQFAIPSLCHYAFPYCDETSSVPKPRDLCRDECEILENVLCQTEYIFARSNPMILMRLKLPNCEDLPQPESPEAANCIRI
T6 sequence (Q01973 312-391 limits assumed): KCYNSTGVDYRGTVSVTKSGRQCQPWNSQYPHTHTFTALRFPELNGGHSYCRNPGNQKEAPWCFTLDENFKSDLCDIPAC
T2 sequence (Q01974 34-403): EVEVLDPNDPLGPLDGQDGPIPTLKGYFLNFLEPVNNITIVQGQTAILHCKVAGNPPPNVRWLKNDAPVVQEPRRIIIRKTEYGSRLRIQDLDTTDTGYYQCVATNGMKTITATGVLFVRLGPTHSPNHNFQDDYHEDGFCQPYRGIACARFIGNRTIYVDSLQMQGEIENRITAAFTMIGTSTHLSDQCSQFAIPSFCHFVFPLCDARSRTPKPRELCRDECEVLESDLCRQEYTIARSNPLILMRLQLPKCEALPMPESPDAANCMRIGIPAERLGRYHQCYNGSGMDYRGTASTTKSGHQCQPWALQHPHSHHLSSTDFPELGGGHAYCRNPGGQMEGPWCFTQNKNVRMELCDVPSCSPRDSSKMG
T8 sequence (Q9Z139 30-406): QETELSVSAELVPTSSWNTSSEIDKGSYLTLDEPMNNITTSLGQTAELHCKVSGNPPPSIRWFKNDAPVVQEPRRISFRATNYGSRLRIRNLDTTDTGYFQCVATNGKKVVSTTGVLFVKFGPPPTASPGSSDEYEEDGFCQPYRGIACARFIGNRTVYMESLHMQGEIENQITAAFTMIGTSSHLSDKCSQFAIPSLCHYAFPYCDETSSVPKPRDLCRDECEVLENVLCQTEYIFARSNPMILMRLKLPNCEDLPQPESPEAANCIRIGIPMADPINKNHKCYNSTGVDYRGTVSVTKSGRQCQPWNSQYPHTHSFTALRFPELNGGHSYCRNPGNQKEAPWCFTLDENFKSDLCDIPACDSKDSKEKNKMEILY
T4 sequence (Q01973 165-391 limits assumed): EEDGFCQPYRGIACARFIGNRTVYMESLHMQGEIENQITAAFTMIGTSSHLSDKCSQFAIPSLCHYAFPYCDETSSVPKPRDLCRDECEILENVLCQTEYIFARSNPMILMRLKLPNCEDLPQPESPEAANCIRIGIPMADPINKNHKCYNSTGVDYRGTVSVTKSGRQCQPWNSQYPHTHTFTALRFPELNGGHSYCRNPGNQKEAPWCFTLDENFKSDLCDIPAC

B1: 2A2 (mAb066) IgG (antibody)
heavy: not shown
light: DIVMTQSQKIMSTTVGDRVSITCKASQNVDAAVAWYQQKPGQSPKLLIYSASNRYTGVPDRFTGSGSGTDFTLTISNMQSEDLADYFCQQYDIYPYTFGGGTKLEIKRTVAAPSVFIFPPSDEQLKSGTASVVCLLNNFYPREAKVQWKVDNALQSGNSQESVTEQDSKDSTYSLSSTLTLSKADYEKHKVYACEVTHQGLSSPVTKSFNRGECGGGGSLPETGGWSHPQFEK
notes: Known anti-ROR1 antibody (WO 2010/124188), murine-human chimeric IgG1; tags HC: LPETG-Strep, LC: G5SLPETG-Strep; they may be variable domains only
As to B1, the binding result in experiment [1] is “binds”.

B2: XBR1-402-G5-PNU antibody drug conjugate (other)
VH: QEQQKESGGGLFKPTDTLTLTCTASGFDISSYYMSWVRQAPGNGLEWIGAIGISGNAYYASWAKSRSTITRNTNLNTVTLKMTSLTAADTATYFCARDHPTYGMDLWGPGTLVTVSS
VL: SYELTQLPSVSVSLGQTARITCEGNNIGSKAVHWYQQKPGLAPGLLIYDDDERPSGVPDRFSGSNSGDTATLTISGAQAGDEADYYCQVWDSSAYVFGGGTQLTVTG
modifications: Gly5-EDA-PNU joined by sortase to the LPET of the C-terminal G5SLPETG tag of the full light chain; Gly5-EDA-PNU (PNU-159682 derivative) joined by sortase to the LPET of the C-terminal LPETG tag of the full heavy chain
In the case of B2, the “IC50 of in vitro cell killing, hROR1-overexpressing EMT-6” value in experiment [2] is 0.0011 µg/mL. Moreover, the “IC50 of in vitro cell killing, HS 578T cells (hROR1 status positive)” value in experiment [3] is 1.4 µg/mL. Also, the “IC50 (cell killing of 697 cells, luminescence)” value in experiment [4] was determined as 0.0757 µg/mL. For the same molecule, the “IC50 of in vitro cell killing, hROR1-overexpressing EMT-6 (clone 14)” value in experiment [5] came out at 0.015 µg/mL. Besides, the “IC50 (cell killing of Kasumi-2 cells, luminescence)” value in experiment [6] is 0.0012 µg/mL. In addition, the “IC50 of in vitro cell killing, 697 cells” value in experiment [7] was found to be 0.0176 µg/mL. Further, in experiment [8], the “IC50 values on 697 cells (in vitro cell killing)” value amounted to 0.212 µg/mL.

B3: ERR1-TOP22 chimeric rabbit/human Fab (Fab, V domains shown)
VH: QSLEESGGRLVTPGTPLTLTCTVSGFSLSSYYMSWVRQAPGKGLEWIGTISSSGSTYYASWVKGRFTISKTSTTVDLKMTSLTTEDTATYFCARDLDYDMDLWGPGTLVTVSS
VL: B2 VL with E23G, N26S, D49N, V89L, S92N, S93N, Y95A
notes: Chimeric rabbit/human Fab with His tag, expressed in E. coli (pET11a); lambda light chain
Consider B3, for which the binding result in experiment [9] was “no binding (tested: 100 ng/50 µL)”; in the experiment with Fr + Ki it was “no binding”; with Fr, “no binding”; with Kr, “no binding”; with Ig, “no binding”; in experiment [11], “binds”. In addition, the binding result with hROR2 [12] was “no binding (tested: 1000 ng/100 µL)”. For the same molecule, binding in experiment [10] was put at a Kd of 110 nM. Further, in experiment [10], the koff (as a rule, the rate constant with which the complex falls apart) came out at 0.0813 s⁻¹. Besides, in experiment [10], the kon (commonly the second-order rate constant of association) is 737000 M⁻¹ s⁻¹.

B4: ERR1-TOP54 (antibody, IgG1, V domains shown)
VH: QSLEESGGRLVTPGTPLTLTCTASGFSLSDYYMSWVRQAPGEGLEWIGTIYGGSGNTWYATWAKGRFTISKTSTTVDLKITSPTTEDTATYFCARDFGLSTGGLWGPGTLVTISS
VL: SYELTQLPSVSVSLGQTARITCGGNSIGSKAVNWYQQKPGLAPGLLIYDDDERPSGVPDRFSGSNSGDTATLTISGAQAGDEADYYCQLWDSSARAFVFGGGTQLTVTG
notes: also called ERR1-TOP54 chimeric rabbit/human IgG1
On to B4, for which, in the experiment with hROR2 [13], the binding result is recorded as “no binding (tested: 100 ng/100 µL)”.

B5: ERR1-TOP43 chimeric rabbit/human IgG1 (antibody, V domains shown)
VH: QSLEESGGRLVTPGTPLTLTCTVSGFSLSSYWMSWVRQAPGKGLEWIGAIYGSGNTYYASWAKGRFTISKTSTTVDLKITSPTTEDTATYFCARDVHSTATDLWGPGTLVTISS
VL: B4 VL with S26N, D49N, R95G, F97Y
notes: Rabbit variable domains on human IgG1 constant regions (pCEP4), lambda light chain, from HEK 293F cells
Regarding B5, in the experiment with hROR2 [13], the binding result is “no binding (tested: 100 ng/100 µL)”.
